The subject of the series is Escherichia coli TOP10. Put plainly: shrunken log2 fold change of peptide-encoding DNA abundance (4.5 h post-induction vs induction); higher = less antimicrobial activity (less host growth inhibition). Conditions: time post-induction: 4.5 h; library: site-saturation at positions 5, 18, 19, 20.

125 sequences from the supplement of paper PMC9112550, “Optimization of the antimicrobial peptide Bac7 by deep mutational scanning” (BMC Biology, 2022) can be followed below.
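Further: peptides expressed intracellularly from a pBAD plasmid library in pooled LB shake-flask culture, induced with 0.3% L-arabinose, DNA abundance read by NGS, three biological replicates, DESeq2 with apeglm shrinkage.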

As for RRIRVRPPRLPRPRPRPRPEPRP, the “shrunken log2 fold change” value is 0.609.
With RRIRKRPPRLPRPRPRPAWDPRP the figure was 0.497; with RRIRLRPPRLPRPRPRPIPHPRP, -0.332.
With RRIRLRPPRLPRPRPRPLGVPRP the figure was 0.0325.
With RRIRGRPPRLPRPRPRPMNLPRP the figure was 0.00442.
For the sequence RRIRFRPPRLPRPRPRPLNCPRP, the “shrunken log2 fold change” value was -0.125.
As for RRIRNRPPRLPRPRPRPPESPRP, the “shrunken log2 fold change” value was -0.000194.
With RRIRLRPPRLPRPRPRPPDNPRP the figure was 0.0299.
With RRIRRRPPRLPRPRPRPTWYPRP the figure was 0.0312; with RRIRERPPRLPRPRPRPHHIPRP, -0.0669.
With RRIRLRPPRLPRPRPRPSPKPRP the figure was 0.0205; with RRIRKRPPRLPRPRPRPWTRPRP, -0.0844; with RRIRWRPPRLPRPRPRPCDLPRP, -0.286.
Take RRIRVRPPRLPRPRPRPHERPRP: the “shrunken log2 fold change” value is -0.13.
With RRIRFRPPRLPRPRPRPFGIPRP the figure was -0.197; with RRIRYRPPRLPRPRPRPSIQPRP, -0.594; with RRIRCRPPRLPRPRPRPFEGPRP, 0.0192.
Regarding RRIRERPPRLPRPRPRPPMSPRP, the “shrunken log2 fold change” value is -0.373.
With RRIRGRPPRLPRPRPRPCDNPRP the figure was 0.0785; with RRIRYRPPRLPRPRPRPRCIPRP, -0.308.
For RRIRHRPPRLPRPRPRPEVGPRP, the “shrunken log2 fold change” value came out at 0.0518.
With RRIRERPPRLPRPRPRPSIHPRP the figure was -0.147; with RRIRSRPPRLPRPRPRPHDTPRP, -0.156; with RRIRDRPPRLPRPRPRPSKPPRP, -0.0858.
With RRIRSRPPRLPRPRPRPQGEPRP the figure was -0.0953.
With RRIRWRPPRLPRPRPRPMHHPRP the figure was -0.261.
Take RRIRLRPPRLPRPRPRPYAYPRP: the “shrunken log2 fold change” value was -0.0124.
With RRIRWRPPRLPRPRPRPHHVPRP the figure was -0.108; with RRIRWRPPRLPRPRPRPEVMPRP, 0.00589; with RRIRSRPPRLPRPRPRPWSPPRP, -0.1.
As to RRIRSRPPRLPRPRPRPQVAPRP, the “shrunken log2 fold change” value came out at 0.0589.
With RRIRLRPPRLPRPRPRPCNNPRP the figure was -0.0778; with RRIRYRPPRLPRPRPRPFFRPRP, -0.019.
With RRIRFRPPRLPRPRPRPWDIPRP the figure was -0.0124; with RRIRYRPPRLPRPRPRPVGNPRP, -0.0681; with RRIRVRPPRLPRPRPRPEMDPRP, 0.111.
With RRIRVRPPRLPRPRPRPYRCPRP the figure was -0.0108; with RRIRFRPPRLPRPRPRPINRPRP, 0.0882; with RRIRCRPPRLPRPRPRPDYYPRP, -0.231.
Take RRIRTRPPRLPRPRPRPYAPPRP: the “shrunken log2 fold change” value was -1.07.
With RRIRRRPPRLPRPRPRPKYKPRP the figure was -0.148.
With RRIRHRPPRLPRPRPRPTHYPRP the figure was -0.26.
With RRIRWRPPRLPRPRPRPYCEPRP the figure was -0.481; with RRIRQRPPRLPRPRPRPFEKPRP, -0.0519.
With RRIRYRPPRLPRPRPRPRKYPRP, the “shrunken log2 fold change” value is -0.333.
For the sequence RRIRERPPRLPRPRPRPQGNPRP, the “shrunken log2 fold change” value was -0.166.
With RRIRWRPPRLPRPRPRPCWIPRP the figure was -0.072; with RRIRERPPRLPRPRPRPEPIPRP, -0.00736; with RRIRRRPPRLPRPRPRPWNRPRP, -0.049.
Turning to RRIRGRPPRLPRPRPRPWKGPRP, the “shrunken log2 fold change” value turned out to be 0.22.
With RRIRWRPPRLPRPRPRPVVMPRP the figure was -0.0601; with RRIRGRPPRLPRPRPRPPLFPRP, 0.974.
In the case of RRIRSRPPRLPRPRPRPRHFPRP, the “shrunken log2 fold change” value was 0.141.
With RRIRSRPPRLPRPRPRPLANPRP the figure was 0.271.
On to RRIRRRPPRLPRPRPRPGVFPRP, for which the “shrunken log2 fold change” value came out at 0.278.
With RRIRLRPPRLPRPRPRPANIPRP the figure was -0.501.
With RRIRPRPPRLPRPRPRPKGQPRP the figure was 0.205; with RRIRERPPRLPRPRPRPKSHPRP, -0.336; with RRIRVRPPRLPRPRPRPEPNPRP, 0.19.
RRIRWRPPRLPRPRPRPPTDPRP: the “shrunken log2 fold change” value amounted to 0.415.
With RRIRHRPPRLPRPRPRPIMVPRP the figure was -0.000687; with RRIRWRPPRLPRPRPRPCLHPRP, -0.01.
With RRIRLRPPRLPRPRPRPKHRPRP the figure was -0.112.
With RRIRGRPPRLPRPRPRPENAPRP the figure was 1.03; with RRIRKRPPRLPRPRPRPCYMPRP, -0.195; with RRIRMRPPRLPRPRPRPNWYPRP, -0.0601.
In the case of RRIRMRPPRLPRPRPRPFTMPRP, the “shrunken log2 fold change” value was -0.55.
With RRIRMRPPRLPRPRPRPLWKPRP the figure was 0.0435; with RRIRRRPPRLPRPRPRPVQDPRP, 0.252.
With RRIRVRPPRLPRPRPRPQDCPRP the figure was -0.172; with RRIRRRPPRLPRPRPRPPMWPRP, 0.548; with RRIRFRPPRLPRPRPRPHDHPRP, -0.508.
As for RRIRERPPRLPRPRPRPWITPRP, the “shrunken log2 fold change” value is -0.00674.
With RRIRWRPPRLPRPRPRPLLCPRP the figure was 0.15; with RRIRDRPPRLPRPRPRPVISPRP, 0.277; with RRIRCRPPRLPRPRPRPWWGPRP, 0.0769.
With RRIRPRPPRLPRPRPRPPCNPRP the figure was -0.0234.
With RRIRGRPPRLPRPRPRPLMPPRP the figure was 0.285; with RRIRLRPPRLPRPRPRPDVLPRP, -0.00959; with RRIRVRPPRLPRPRPRPKLEPRP, 0.09.
With RRIRIRPPRLPRPRPRPHSYPRP, the “shrunken log2 fold change” value was -0.244.
For the sequence RRIRLRPPRLPRPRPRPDPKPRP, the “shrunken log2 fold change” value came out at 0.331.
With RRIRSRPPRLPRPRPRPSDKPRP the figure was -0.351; with RRIRWRPPRLPRPRPRPHNNPRP, -0.749.
With RRIRGRPPRLPRPRPRPQCKPRP the figure was 0.165.
With RRIRNRPPRLPRPRPRPMWVPRP the figure was 0.0358; with RRIRWRPPRLPRPRPRPAMWPRP, 0.433.
For RRIRFRPPRLPRPRPRPMFEPRP, the “shrunken log2 fold change” value was -0.0233.
With RRIRHRPPRLPRPRPRPIKAPRP the figure was -0.157; with RRIRYRPPRLPRPRPRPFQTPRP, -0.0251; with RRIRVRPPRLPRPRPRPHQEPRP, 0.113.
For RRIRQRPPRLPRPRPRPAVAPRP, the “shrunken log2 fold change” value came out at 0.0726.
With RRIRIRPPRLPRPRPRPRFYPRP the figure was -0.124; with RRIRVRPPRLPRPRPRPTIMPRP, -0.411; with RRIRSRPPRLPRPRPRPVFVPRP, -0.00419.
Turning to RRIRVRPPRLPRPRPRPNYSPRP, the “shrunken log2 fold change” value is -0.438.
With RRIRFRPPRLPRPRPRPKMEPRP the figure was -0.028.
With RRIRKRPPRLPRPRPRPMAIPRP the figure was 0.116; with RRIRKRPPRLPRPRPRPPNKPRP, 0.289.
With RRIRARPPRLPRPRPRPRTYPRP the figure was -0.126.
As for RRIRLRPPRLPRPRPRPMLWPRP, the “shrunken log2 fold change” value was 0.00318.
With RRIRFRPPRLPRPRPRPFVVPRP the figure was -0.219; with RRIRYRPPRLPRPRPRPVCPPRP, 0.101.
With RRIRFRPPRLPRPRPRPRELPRP the figure was 0.263.
With RRIRSRPPRLPRPRPRPPVDPRP the figure was 0.327.
As for RRIRWRPPRLPRPRPRPYNCPRP, the “shrunken log2 fold change” value is -0.331.
With RRIRSRPPRLPRPRPRPMYCPRP the figure was 0.0069; with RRIRYRPPRLPRPRPRPKFMPRP, -0.633; with RRIRCRPPRLPRPRPRPPEYPRP, -0.319.
In the case of RRIRKRPPRLPRPRPRPWFSPRP, the “shrunken log2 fold change” value was -0.329.
With RRIRQRPPRLPRPRPRPILAPRP the figure was 0.465; with RRIRRRPPRLPRPRPRPQYPPRP, -0.444.
With RRIRTRPPRLPRPRPRPLGEPRP the figure was 0.0248; with RRIRHRPPRLPRPRPRPLHGPRP, 0.00793; with RRIRLRPPRLPRPRPRPDCCPRP, 0.0778.
As to RRIRCRPPRLPRPRPRPACLPRP, the “shrunken log2 fold change” value was -0.111.
For RRIRDRPPRLPRPRPRPQYEPRP, the “shrunken log2 fold change” value was -0.025.
With RRIRKRPPRLPRPRPRPKLQPRP the figure was 0.423; with RRIRFRPPRLPRPRPRPYIPPRP, -1.8.
With RRIRVRPPRLPRPRPRPFHAPRP the figure was -0.229; with RRIRKRPPRLPRPRPRPNRGPRP, 0.0385.
With RRIRPRPPRLPRPRPRPGYEPRP the figure was -0.172; with RRIRSRPPRLPRPRPRPISGPRP, -0.176; with RRIRFRPPRLPRPRPRPHTIPRP, -0.745.
On to RRIRDRPPRLPRPRPRPYAQPRP, for which the “shrunken log2 fold change” value was -0.156.
